Measurements published in patent US5827710, “DNA encoding the subunit of avian lactate dehydrogenase” (Oriental Yeast Co., Ltd., dated 1998).

Biological target: the molecule itself
Experiment: gel filtration column chromatography (SMART system) of the purified recombinant protein: about 147,000 found, against about 36,000 calculated for each subunit
Excerpt: 3) Determination of the molecular weight of the recombinant chicken LDH-B₄ protein As a result of gel filtration column chromatography analysis of the purified sample by a SMART system (made by Pharmacia), the molecular weight of the purified recombinant chicken LDH-B₄ protein was about 147,000 (FIG. 10). It is presumed that the subunits B of chicken LDH are combined to form a tetramer (theoretical molecular weight of about 140,000) because the molecular weight of each subunit B of chicken LDH is calculated at about 36,000 from its amino acid sequence.

B1: type B subunit of chicken lactate dehydrogenase (recombinant, expressed in Saccharomyces cerevisiae from YRp1G-cLD-B) (enzyme)
chain: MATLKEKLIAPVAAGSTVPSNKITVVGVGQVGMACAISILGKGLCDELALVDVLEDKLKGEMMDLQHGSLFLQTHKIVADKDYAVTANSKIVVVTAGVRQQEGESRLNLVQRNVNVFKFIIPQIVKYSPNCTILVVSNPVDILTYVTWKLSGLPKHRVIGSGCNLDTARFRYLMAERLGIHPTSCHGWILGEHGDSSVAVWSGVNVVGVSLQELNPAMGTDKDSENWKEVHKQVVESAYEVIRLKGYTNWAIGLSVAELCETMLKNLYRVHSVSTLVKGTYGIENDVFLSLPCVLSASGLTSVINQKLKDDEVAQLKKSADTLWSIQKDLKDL
binding result: binds
